Positions count from the first letter of the chain named.
T1: FX zymogen (UniProt P00742 41-179; P00742 183-488)
T1 chain 1: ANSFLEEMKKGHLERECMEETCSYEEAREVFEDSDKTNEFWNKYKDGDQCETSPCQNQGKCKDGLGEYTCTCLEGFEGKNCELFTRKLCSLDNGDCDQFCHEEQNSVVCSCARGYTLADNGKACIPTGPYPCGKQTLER
T1 chain 2: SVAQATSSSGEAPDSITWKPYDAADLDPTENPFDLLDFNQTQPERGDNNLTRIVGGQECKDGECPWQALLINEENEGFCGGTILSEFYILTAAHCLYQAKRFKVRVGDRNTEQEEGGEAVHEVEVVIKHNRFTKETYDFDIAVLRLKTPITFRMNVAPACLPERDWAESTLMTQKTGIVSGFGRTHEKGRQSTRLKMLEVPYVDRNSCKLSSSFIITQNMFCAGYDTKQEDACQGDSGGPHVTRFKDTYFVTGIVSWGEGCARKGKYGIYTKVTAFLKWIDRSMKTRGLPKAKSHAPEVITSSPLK

B1: BIIB-12-908 (antibody, V domains shown)
VH: QVQLVESGGGVVQPGRSLRLSCAASGFTFSSYGMHWVRQAPGKGLEWVAVISYDGSNKYYADSVKGRFTISRDNSKNTLYLQMNSLRAEDTAVYYCAKGPRGMDVWGQGTTVTVSS
VL: DIQLTQSPSSVSASVGDRVTITCRASQGISSWLAWYQQKPGKAPKLLIYGASSLQSGVPSRFSGSGSGTDFTLTISSLQPEDFATYYCQQGSSLPITFGGGTKVEIK
B2: BIIB-12-1314 (antibody, V domains shown)
VH: B1 VH with P100T, G102W, M103A, D104G, V105N, T111L
VL: B1 VL with L4M, G50A, G91A, S92N, S93F, L94F
B3: BIIB-12-894 (antibody, V domains shown)
VH: QLQLQESGPGLVKPSETLSLTCTVSGGSISSSSYYWGWIRQPPGKGLEWIGSIYYSGSTYYNPSLKSRVTISVDTSKNQFSLKLSSVTAADTAVYYCAREGAHSSMAGLDVWGQGTMVTVSS
VL: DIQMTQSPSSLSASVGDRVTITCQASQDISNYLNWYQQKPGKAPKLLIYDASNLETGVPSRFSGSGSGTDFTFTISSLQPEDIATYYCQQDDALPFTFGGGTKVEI
B4: BIIB-12-923 (antibody, V domains shown)
VH: QVQLVQSGAEVKKPGASVKVSCKASGYTFTSYYMHWVRQAPGQGLEWMGIINPSGGSTSYAQKFQGRVTMTRDTSTSTVYMELSSLRSEDTAVYYCARGAGYLQRAFDIWGQGTMVTVSS
VL: DIQMTQSPSTLSASVGDRVTITCRASQSISSWLAWYQQKPGKAPKLLIYKASSLESGVPSRFSGSGSGTEFTLTISSLQPDDFATYYCQQFKSLSFTFGGGTKVEIK
B5: BIIB-12-932 (antibody, V domains shown)
VH: QVQLVESGGGVVQPGRSLRLSCAASGFTFSSYGMHWVRQAPGKGLEWVAVISYDGSNKYYADSVKGRFTISRDNSKNTLYLQMNSLRAEDTAVYYCARLGYRGASAFDIWGQGTMVTVSS
VL: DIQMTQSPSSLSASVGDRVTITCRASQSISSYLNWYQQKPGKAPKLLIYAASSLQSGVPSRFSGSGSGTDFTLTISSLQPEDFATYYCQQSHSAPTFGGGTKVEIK
B6: BIIB-12-1321 (antibody, V domains shown)
VH: QVQLVQSGAEVKKPGSSVKVSCKASGGTFSSYAISWVRQAPGQGLEWMGGIIPIFGTANYAQKFQGRVTITADESTSTAYMELSSLRSEDTAVYYCARTPDTSSATDWGQGTLVTVSS
VL: EIVMTQSPATLSLSPGERATLSCRASQSVSSYLAWYQQKPGQAPRLLIYDSSNRATGIPARFSGSGSGTDFTLTISSLEPEDFAVYYCQQFTNLPYTFGGGTKVEIK
B7: BIIB-12-924 (antibody, V domains shown)
VH: QVQLVESGGGVVQPGRSLRLSCAASGFTFSSYGMHWVRQAPGKGLEWVAVISYDGSNKYYADSVKGRFTISRDNSKNTLYLQMNSLRAEDTAVYYCAKGKSSERGLNPWGQGTLVTVSS
VL: B1 VL with L4M, G50A, S92N, L94F, I96L
B8: BIIB-12-931 (antibody, V domains shown)
VH: QVQLVQSGAEVKKPGASVKVSCKASGYTFTSYYMSWVRQAPGQGLEWMGIINPSGGSTSYAQKFQGRVTMTRDTSTSTVYMELSSLRSEDTAVYYCARDPVQEYGPYYYYMDVWGKGTTVTVSS
VL: EIVMTQSPATLSVSPGERATLSCRASQSVSSNLAWYQQKPGQAPRLLIYGASTRATGIPARFSGSGSGTEFTLTISSLQSEDFAVYYCQQAAYWPWTFGGGTKVEIK
B9: BIIB-12-1320 (antibody, V domains shown)
VH: QLQLQESGPGLVKPSETLSLTCTVSGGSISSSSYYWGWIRQPPGKGLEWIGSIYYSGSTYYNPSLKSRVTISVDTSKNQFSLKLSSVTAADTAVYYCARGSGLLVREHYYYYMDVWGKGTTVTVS
VL: DIQMTQSPSSLSASVGDRVTITCRASQSISSYLNWYQQKPGKAPKLLIYAASSLQSGVPSRFSGSGSGTDFTLTISSLQPEDFATYYCQQADDTPWTFGGGTKVEIK
B10: BIIB-12-1303 (antibody, V domains shown)
VH: QVQLVESGGGVVQPGRSLRLSCAASGFTFSSYGMHWVRQAPGKGLEWVAVISYDGSNKYYADSVKGRFTISRDNSKNTLYLQMNSLRAEDTAVYYCARGPTSRLFQHWGQGTLVTVS
VL: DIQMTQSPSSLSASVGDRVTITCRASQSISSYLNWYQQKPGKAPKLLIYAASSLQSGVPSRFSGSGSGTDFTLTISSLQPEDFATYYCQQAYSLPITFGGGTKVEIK
B11: BIIB-12-933 (antibody, V domains shown)
VH: QVQLVESGGGVVQPGRSLRLSCAASGFTFSSYGMHWVRQAPGKGLEWVAVISYDGSNKYYADSVKGRFTISRDNSKNTLYLQMNSLRAEDTAVYYCARLPRFTGTAYWGQGTLVTVSS
VL: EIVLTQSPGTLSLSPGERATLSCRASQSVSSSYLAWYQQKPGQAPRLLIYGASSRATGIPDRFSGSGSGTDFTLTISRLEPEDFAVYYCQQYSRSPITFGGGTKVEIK
B12: BIIB-12-1327 (antibody, V domains shown)
VH: QVQLVESGGGVVQPGRSLRLSCAASGFTFSSYGMHWVRQAPGKGLEWVAVISYDGSNKYYADSVKGRFTISRDNSKNTLYLQMNSLRAEDTAVYYCAKLGLARGGGYGMDVWGQGTTVTVSS
VL: B8 VL with L11Q, S12Y, A91Y, A92H, Y93N, W94F, W96P
B13: BIIB-12-1300 (antibody, V domains shown)
VH: B1 VH with K98R, P100S, R101K, G102Y, M103L, D104H, V105A, T111L
VL: B1 VL with L4M, G50A, G91A, L94F, I96P
B14: BIIB-12-1332 (antibody, V domains shown)
VH: QVQLVQSGAEVKKPGASVKVSCKASGYTFTSYYMSWVRQAPGQGLEWMGIINPSGGSTSYAQKFQGRVTMTRDTSTSTVYMELSSLRSEDTAVYYCARLGRKSRVFDIWGQGTMVTVSS
VL: B1 VL with L4M, G50A, G91V, S92N, L94F, I96L, I106F
B15: BIIB-12-1322 (antibody, V domains shown)
VH: QVQLVQSGAEVKKPGASVKVSCKASGYTFTSYYIHWVRQAPGQGLEWMGIINPSGGSTSYAQKFQGRVTMTRDTSTSTVYMELSSLRSEDTAVYYCARSRQRHRGDWYFDLWGRGTLVTVSS
VL: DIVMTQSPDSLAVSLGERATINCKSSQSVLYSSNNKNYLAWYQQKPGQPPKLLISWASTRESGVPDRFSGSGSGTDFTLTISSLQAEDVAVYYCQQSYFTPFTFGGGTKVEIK
B16: BIIB-12-915 (antibody, V domains shown)
VH: QLQLQESGPGLVKPSETLSLTCTVSGGSISSSRYYWGWIRQPPGKGLEWIGSIYYSGSTYYNPSLKSRVTISVDTSKNQFSLKLSSVTAADTAVYYCARVGGGYANPWGQGTLVTVSS
VL: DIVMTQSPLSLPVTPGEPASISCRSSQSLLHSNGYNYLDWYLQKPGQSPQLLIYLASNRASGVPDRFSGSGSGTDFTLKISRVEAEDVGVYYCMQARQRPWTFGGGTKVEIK
B17: BIIB-12-1301 (antibody, V domains shown)
VH: B7 VH with K98R, G99T, K100G, S101N, S102Y, E103G, L106M, N107P, P108Y
VL: B6 VL with M4L, S51A, N53K, F91S, T92S, N93S, L94W, Y96P
B18: BIIB-12-1295 (antibody, V domains shown)
VH: QVQLVQSGAEVKKPGASVKVSCKASGYTFTSYYMVWVRQAPGQGLEWMGIINPSGGSTSYAQKFQGRVTMTRDTSTSTVYMELSSLRSEDTAVYYCARVGGATTGKIGYGMDVWGQGTTVTVSS
VL: B1 VL with L4M, G50A, S53N, G91A, S92I
B19: BIIB-12-916 (antibody, V domains shown)
VH: QVQLVQSGAEVKKPGASVKVSCKASGYTFTSYYMHWVRQAPGQGLEWMGIINPSGGSTSYAQKFQGRVTMTRDTSTSTVYMELSSLRSEDTAVYYCARGGRQKATRRVDVWGQGTVVTVSS
VL: B9 VL with A91L, D92A, D93I, W96F
B20: BIIB-12-926 (antibody, V domains shown)
VH: B19 VH with G99D, Q102M, K103A, A104R, T105G, R106A, R107S, V108P, V110Y, V116L
VL: B8 VL with A91H, A92S, Y93F, W96P
B21: BIIB-12-1311 (antibody, V domains shown)
VH: B1 VH with P100R, R101H, G102Y, M103W, D104A, T111L
VL: B6 VL with M4L, S51A, F91A, T92S, Y96P
B22: BIIB-12-1298 (antibody, V domains shown)
VH: B11 VH with R98K, L99G, P100G, R101S, F102D, T103R, G104R, T105V, A106G, Y107S
VL: B1 VL with L4M, G50A, G91T, S92N
B23: BIIB-12-904 (antibody, V domains shown)
VH: B11 VH with L99G, P100S, R101G, F102R, T103S, T105Y, A106H
VL: B8 VL with A92F, Y93N, W96P
B24: BIIB-12-1294 (antibody, V domains shown)
VH: B14 VH with S35H, L99G, G100T, K102S, V105D, F106M, I108V, M114T
VL: B4 VL with F91V, K92N, S93T, L94F, S95P
B25: BIIB-12-929 (antibody, V domains shown)
VH: B14 VH with S35H, L99D, G100Q, R101G, K102Y, V105S
VL: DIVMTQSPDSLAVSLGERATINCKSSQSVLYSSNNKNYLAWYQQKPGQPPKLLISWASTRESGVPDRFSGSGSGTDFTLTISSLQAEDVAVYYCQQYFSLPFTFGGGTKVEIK

Biological target: T1, FX zymogen
Test: BLI

| Binder | Kd [nM] |
| --- | --- |
| B1 | 34 |
| B2 | 10.4 |
| B3 | 38 |
| B4 | 33.8 |
| B5 | 29.3 |
| B6 | 10.6 |
| B7 | 22.3 |
| B8 | 13.5 |
| B9 | 8.27 |
| B10 | 25.9 |
| B11 | 50.3 |
| B12 | 38.3 |
| B13 | 48.6 |
| B14 | 53.5 |
| B15 | 36.1 |
| B16 | 34.4 |
| B17 | 65 |
| B18 | 42.6 |
| B19 | 15.6 |
| B20 | 24 |
| B21 | 29 |
| B22 | 33.5 |
| B23 | 42.3 |
| B24 | 37.3 |
| B25 | 15.2 |
